Assay results published in patent publication CN114349861A (HUAOTSU BALL; JIANGSU INST OF TARGET BIOMEDICINE CO LTD, dated 2022).

Biological target: T1, 人PD1蛋白 (human, UniProt Q15116 25-170)
T1 construct: extracellular domain; also called PD1(人); PD1(胞外段)蛋白
Assay: non-competitive ELISA at three PD1 coating concentrations; Beatty formula, mean of three K values

T1 sequence (Q15116 25-170): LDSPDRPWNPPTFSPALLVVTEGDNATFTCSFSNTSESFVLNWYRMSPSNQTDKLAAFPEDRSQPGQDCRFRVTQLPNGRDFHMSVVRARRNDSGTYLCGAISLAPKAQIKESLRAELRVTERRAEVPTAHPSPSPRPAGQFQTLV

B1: 抗PD1-VHH1 (VHH)
VHH: QVQLVESGGGSVQAGGSLRLSCAASGYASSSYSMGWFRQAPGKEREAVAGVNRDGSTRYADSVKGRFTISKDNAKNTLYLQMNSLKPEDTAMYYCAADRGWLPRRPDYWGQGTQVTVSS
notes: Camel (dromedary) VHH selected from a T7 phage library; The soluble protein was expressed from pET32a in E. coli BL21(DE3) and purified on Ni-IDA; The specificity ELISA detected it with an anti-HA antibody; also called 抗PD1Nb1; antiPD1Nb
Question: With B1 as the binder, how does the Ka read?
Answer: 8.2e+06 M⁻¹
